Measured values taken from publication PMC6625847 (Molecular cell, 2019).
Changes are numbered by the printed parent chain. Names may count otherwise. “And” between values parts separate entries of the source, which are not always exact repeats. Equal values may be shown once. Read-outs that look alike come from different tables or passages of the source.

Columns and labels:
Arc (Arg3.1) = Arc (Arg3.1) (UniProt Q63053); assay: dynamic light scattering of oligomer size; settings: reference: wild type; sites T278
[1] = biological target: full-length ArcG277D (rat) (UniProt Q63053); assay: dynamic light scattering
[2] = biological target: full-length ArcK257A (rat) (UniProt Q63053); assay: dynamic light scattering
[3] = biological target: full-length ArcQ241A (rat) (UniProt Q63053); assay: dynamic light scattering
[4] = biological target: full-length ArcS260D (rat) (UniProt Q63053); assay: dynamic light scattering
[5] = biological target: full-length ArcS260D,T278A (rat) (UniProt Q63053); assay: dynamic light scattering
[6] = biological target: full-length ArcS260D,T278D (rat) (UniProt Q63053); assay: dynamic light scattering
dynamic light scattering [7] = biological target: the molecule itself; assay: dynamic light scattering
dynamic light scattering [8] = biological target: the molecule itself; assay: dynamic light scattering; remark: listed apart in the source

Q: How did the “other: oligomer mass from DLS after 6 min at 30°C” value (Arc (Arg3.1)) turn out when “Arc (Arg3.1) (from UniProt Q63053) T278D” was run?
A: weaker; reference ~2458

Q: How did the stoichiometry N [1] turn out when “full-length ArcG277D (from UniProt Q63053 1-396) (natural protein)” was run?
A: 4

Q: With “full-length ArcK257A (from UniProt Q63053 1-396) (natural protein)” as the molecule, how does the stoichiometry N [2] read?
A: 4

Q: With “full-length ArcQ241A (from UniProt Q63053 1-396) (natural protein)” as the molecule, how does the stoichiometry N [3] read?
A: 4

Q: With “full-length ArcS260D (from UniProt Q63053 1-396) (natural protein)” as the molecule, how does the stoichiometry N [4] read?
A: 4

Q: With “full-length ArcS260D,T278A (from UniProt Q63053 1-396) (natural protein)” as the molecule, how does the stoichiometry N [5] read?
A: 4

Q: With “full-length ArcS260D,T278D (from UniProt Q63053 1-396) (natural protein)” as the molecule, how does the stoichiometry N [6] read?
A: 4

B1: full-length Rn Arc (wild type) (natural protein, rat, UniProt Q63053 1-396, looked up)
chain: MELDHMTTGGLHAYPAPRGGPAAKPNVILQIGKCRAEMLEHVRRTHRHLLTEVSKQVERELKGLHRSVGKLENNLDGYVPTGDSQRWKKSIKACLCRCQETIANLERWVKREMHVWREVFYRLERWADRLESMGGKYPVGSEPARHTVSVGVGGPEPYCQEADGYDYTVSPYAITPPPAAGELPEQESVGAQQYQSWVPGEDGQPSPGVDTQIFEDPREFLSHLEEYLRQVGGSEEYWLSQIQNHMNGPAKKWWEFKQGSVKNWVEFKKEFLQYSEGTLSREAIQRELDLPQKQGEPLDQFLWRKRDLYQTLYVDAEEEEIIQYVVGTLQPKFKRFLRHPLPKTLEQLIQRGMEVQDGLEQAAEPSVTPLPTEDETEALTPALTSESVASDRTQPE
Q: What does the source list for B1?
A: stoichiometry N (dynamic light scattering [7]): 4; stoichiometry N (dynamic light scattering [8]): ~32 and ~48

B2: full-length ArcT278D (natural protein, rat, UniProt Q63053 1-396, looked up)
chain: B1 chain with T278D
Q: For B2, which “stoichiometry N” value (dynamic light scattering [7]) is on record?
A: 4

Q: And the “stoichiometry N” value (dynamic light scattering [8])?
A: ~24

B3: full-length ArcS260A (natural protein, rat, UniProt Q63053 1-396, looked up)
chain: B1 chain with S260A
Q: Does B3 bind (dynamic light scattering [8])?
A: binds

B4: full-length ArcS260A,T278A (natural protein, rat, UniProt Q63053 1-396, looked up)
chain: B1 chain with S260A, T278A
Q: Does B4 bind (dynamic light scattering [8])?
A: binds
